Experimental data reported in US12404346B2, “Anti-naloxone and anti-naltrexone monoclonal antibodies and methods of production and use thereof” (Siemens Healthcare Diagnostics Inc., priority 2019, dated 2025).

B1: 179A 6H6: anti-naloxone monoclonal antibody generated using naloxone-3-Val-mcKLH; heavy chain SEQ ID NO:221, light chain SEQ ID NO:225 (antibody, V domains shown)
VH: MYLGLNCVIIVFLLKGVQSEVKLEESGGGLVPPGGSMKLSCSVSGFTFSDAWIDWVRQSPEKGLEWIAESRNKANNYAIYYTESVKGRFTISRDDSKSRVYLQMNNLRVEDTGIYYCTGPDYDSYWGGTLVTVSA
VL: MEFQTQVFVFVLLWLSGVDGDVVMTQSQKIMSTSVGDRVSITCKASQNVRTAVTWYQLKPGQSPKALIYLASNRHTGVPDRFRGSGSGTDFTLTIINVQSEDLADYFCLQHWNYPLTFGAGTKLELK
modifications: Amino acid sequence of heavy chain of monoclonal antibody 179A 6H6; Amino acid sequence of light chain of monoclonal antibody 179A 6H6
B2: 179B 9E7: anti-naloxone monoclonal antibody generated using naloxone-3-Val-mcKLH; heavy chain SEQ ID NO:241, light chain SEQ ID NO:245 (antibody)
heavy: MYLGLNCVIIVFLLKGVQSEMKLEESGGGLVQPGGSMKLSCTASGFTFSDAWMDWVRQSPEKGLEWVAEIRNKAYNHATYYAESVRGRFTISRDDSKSKMFLEMNSLRPEDTGIYYCIGGIWTDFDYGQGTTLTVSS
light: MESQTQVFVYMLLWLSGVDGDIVMTQSQKFMSTSVGDRVSVTCKASQNVGINVAWYQQKSGQPPKALIYSASSRYSGVPDRFTGSGSGTDFTLTISNVQSEDLAEYFCHQYNNYPLTFGAGTKLDLK
modifications: Amino acid sequence of heavy chain of monoclonal antibody 179B 9E7; Amino acid sequence of light chain of monoclonal antibody 179B 9E7
B3: 180A 3D3: anti-naltrexone monoclonal antibody generated using naltrexone-3-Val-mcKLH; heavy chain SEQ ID NO:21, light chain SEQ ID NO:25 (antibody)
heavy: MYLGLNCVFIVFLLKGVQSEVNLEESGGGLVQPGGSMKLSCVASGFTFSNYWMNWVRQSPERGLEWVAEISLKSYNYATHYAESVKGRFTISGDESKNSVYLQMNNLRAEDTGIYFCTRGDSYALDYGQRTLVTVSS
light: MEFQTQVLMSLLLCMSGACADIVMTQSPTFLAVTVSKKVTISCTASESLYSSKHKVHYLAWYQKKPEQSPKLLIYGASNRYIGVPDRFTGSGSGTDFTLTISSVQVEDLTHYYCAQFYSYPYTFGGGKLEIK
modifications: Amino Acid sequence of heavy chain of monoclonal antibody 180A 3D3; Amino Acid sequence of light chain of monoclonal antibody 180A 3D3
B4: 180C 2A12: anti-naltrexone monoclonal antibody generated using naltrexone-3-Val-mcKLH; heavy chain SEQ ID NO:1, light chain SEQ ID NO:5 (antibody)
heavy: MGWSWIFLFLLSGTAGVHCQVQLQQSGPELVKPGGSVKLSCKASGYIFNDYTIHWMKQSPGQGLEWIGWMNRRSFNTMYNDKFKGKATMTVDKSSSTAYIQLSSLTSDDSAVYFCVRDVYDNLDYWGQGTSVTVSSAKTTPPSVYPLAPGSAAQTNSMVTLGCLVKGYFPEPVTVTWNSGSLSSGVHTFPAVLQSDLYTLSSSVTVPSSTWPSETVTCNVAHPASSTKVDKKIVPRDCGCKPCICTVPEVSSVFIFPPKPKDVLTITLTPKVTCVVVDISKDDPEVQFSWFVDDVEVHTAQTQPREEQFNSTFRSVSELPIMHQDWLNGKEFKCRVNSAAFPAPIEKTISKTKGRPKAPQVYTIPPPKEQMAKDKVSLTCMITDFFPEDITVEWQWNGQPAENYKNTQPIMDTDGSYFIYSKLNVQKSNWEAGNTFTCSVLHEGLHNHHTEKSLSHSPGK
light: MKLPVRLLVLMFWIPASSSDVLMTQTPLSLPVSLGDQASISCRSSQSIVHSNGNTYLEWYLQKPGQSPRLLIYKVSNRFSGVPDRFSGSGSGTDFTLRISRVEAEDLGLYYCFQGSHVPLTFGAGTKLELKRADAAPTVSIFPPSSEQLTSGGASVVCFLNNFYPRDINVKWKIDGSERQNGVLNSWTDQDSKDSTYSMSSTLTLTKDEYERHNSYTCEATHKTSTSPIVKSFNRNEC
modifications: Amino Acid sequence of heavy chain of monoclonal antibody SHC 004; Amino acid sequence of Light Chain of monoclonal antibody SHC 004
B5: 179B 10A7: anti-naloxone monoclonal antibody generated using naloxone-3-Val-mcKLH; heavy chain SEQ ID NO:201, light chain SEQ ID NO:205 (antibody, V domains shown)
VH: MGWSWIFLFLLSGTAGVHCQIQLQQSGPELVKPGASVKISCKASDYSFTKSYINWVKQRPGQGLEWIGWIYPGSANIKYNEKFRDKATLTVDTSSNTAYIQLSSLTSEDSAVYFCEMGTHYTYDVMDWGQGTSVTVSS
VL: MEFQTQVFVFVLLWLSGVDGDIVMTPSQKFMSTSVGDRVSITCKASQNVRTSVGWYQQKPGQSPKPLIYAASNRHTGVPDRFTGSGSGTDFSLTITNVQSEDQADYFCLQHWNYPWTFGGGTKLEIK
modifications: Amino acid sequence of heavy chain of monoclonal antibody 179B 10A7; Amino acid sequence of light chain of monoclonal antibody 179B 10A7

Tests used:
[1] = Randox naloxone assay, competitive chemiluminescent immunoassay; cited from earlier work
[2] = opiate enzyme multiplied immunoassay with antibody blocker (FIG. 11, FIG. 12); settings: cutoff 300 ng/mL; FIG. 11 and FIG. 12
[3] = inhibition ELISA, anti-naloxone monoclonal antibodies against key opioids (FIG. 7); assay type: binding; settings: free drug 20 μg/mL, plates coated with ovalbumin conjugate
Source text: (§1) Mice with good anti-drug antibody titers and binding to free drug in the ELISA inhibition assays were selected to proceed with generation of monoclonal antibodies, in a similar manner to that described in U.S. Pat. No. 9,815,907 (issued to Sharma et al. on Nov. 14, 2017). In particular, mice with highest titers and best specificity were boosted three days prior to fusion. On the day of fusion, spleen cells were harvested from these mice and were fused with myeloma cell line P3X63Ag8.653 using PEG-assisted fusion protocols. After about ten days, hybridoma supernatants were screened for anti-naloxone and anti-naltrexone antibodies using a plate ELISA (direct binding and inhibition ELISA for specificity). Positive clones were further expanded and sub-cloned, and supernatants were purified using a Protein A SEPHAROSE® (GE Healthcare, Chicago, IL) column. Purified antibody samples were tested using ELISA for binding to the immunogen (i.e., a conjugate of drug-carrier protein) and to free opioids.
(§2) Antibody solution (Immune mouse bleeds or hybridoma clones supernatant or purified antibody) was screened using an inhibition ELISA procedure according to the following protocol. […] Plate coating was performed for 1 hour or more at room temperature or overnight at about 2° C. to 8° C. The plates were then flicked dry and blocked with 200 μL per well of blocking buffer solution (0.5% Casein solution in PBS containing 0.05% TWEEN® 20 surfactant (Croda International PLC, Snaith, United Kingdom). Plate blocking was performed by incubation for 30 minutes or more at room temperature with plate shaking. The plates were washed using a plate washer (BioTek®, Winooski, VT) with plate stacker with the washing buffer being MILLIQ® water (Millipore Corporation, Billerica, MA) containing 0.05% TWEEN® 20. The monoclonal antibody to be screened was then added to each well along with free drug as follows: 25 μL per well of appropriately diluted culture supernatant (or antibody solution) and added 25 μL of 20 μg/mL of free drug. Incubation was performed for about 1 hour at room temperature with plate shaking. The plate was washed. An enzyme conjugate (goat anti-mouse IgG coupled to HRP diluted in blocking buffer diluted to 1:3000) was added at 50 μL per well. Incubation was performed for about 1 hour at room temperature with shaking. The plate was then washed, and a chromogenic solution (TMB from Moss Substrates, Pasadena MD) was added at a volume of 100 μL per well. If a desired antibody was present in the hybridoma supernatant, then a decrease in optical density was observed compared to the well containing no free drug. The plates were read at 650 nm wavelength using an ELISA plate reader (Molecular Devices, San Jose, CA). Note: appropriate dilution of antibody solution was determined by performing a titration ELISA. The antibody dilution was chosen where around 1.0 optical density was observed.

[4] = naloxone and naltrexone specific immunoassays (FIG. 9, FIG. 10); assay type: binding; settings: FIG. 9 and FIG. 10
Source text: An EMIT® II (enzyme multiplied immunoassay, Siemens Healthineers, Newark, DE) Plus Naloxone and/or Naltrexone Assay is a homogeneous enzyme immunoassay technique used for the analysis of specific compounds in human urine. The assay is based on competition between drug in the specimen and drug labeled with glucose-6-phosphate dehydrogenase (rG6PDH) for antibody binding sites. Enzyme activity decreases upon binding to the antibody, so the drug concentration in the specimen can be measured in terms of enzyme activity. Active enzyme converts nicotinamide adenine dinucleotide (NAD) to NADH in the presence of glucose-6-phosphate (G6P), resulting in an absorbance change that is measured spectrophotometrically.
The EMIT® assay format comprises an antibody/substrate reagent, known as reagent 1. This reagent includes the antibody as well as buffers, preservatives, and stabilizers for the assay. The EMIT® assay format also comprises an enzyme reagent, known as reagent 2. This reagent includes the conjugate as well as buffers, preservatives, and stabilizers for the assay.

[5] = inhibition ELISA, anti-naltrexone monoclonal antibodies against key opioids (FIG. 8); assay type: binding; settings: free drug 20 μg/mL, plates coated with ovalbumin conjugate
Source text: as §1, §2

[6] = hydrocodone assay with antibody blocker (FIG. 13); settings: cutoff 300 ng/ml

Molecule | change of naloxone/naltrexone cross reactivity response in the presence of the antibody blocker [2] | specificity for naloxone over the other key opioids tested in the inhibition ELISA assay [3] | detection of naloxone and naltrexone in specific assays [4] | specificity for naltrexone over the other key opioids tested in the inhibition ELISA assay [5] | further results
C=CCN1CC[C@]23c4c5ccc(O[C@@H]6O[C@H](C(=O)O)[C@@H](O)[C@H](O)[C@H]6O)c4O[C@H]2C(=O)CC[C@@]3(O)[C@H]1C5 [naloxone 3-B-D glucuronide] |  |  |  |  | level of cross-reactivity [1]: 70.6%
B1 | cross reactivity of naloxone changes from a positive to a negative response to the cutoff | good specificity for naloxone | detects both naloxone and naltrexone at substantially the same specificity |  | 
B2 |  | good specificity for naloxone |  |  | 
B3 | cross reactivity of naloxone and naltrexone changes from a positive to a negative response to the cutoff |  |  | good specificity for naltrexone | 
B4 |  |  | capable of detecting naloxone in addition to naltrexone, albeit at a lower specificity compared to naltrexone | good specificity for naltrexone | effect of the antibody blocker on amount of naloxone and naltrexone giving a negative response [6]: increase the amount of naloxone and naltrexone that produces a negative response to the cutoff
B5 |  | good specificity for naloxone |  |  | 
